Assay [1] addresses recombinant human neonatal Fc receptor (rhFcRn, R&D systems) (human) (UniProt P55899). Briefly: SPR (Biacore 8K), rhFcRn amine-coupled on CM5, analyte in PBST pH 6.0, steady state affinity. A general note: Surface plasmon resonance follows binding to a sensor surface in real time, without labels.
For assay [2] the target is unchanged. Briefly: SPR, rhFcRn on CM5, analyte in PBST pH 6.0, steady state affinity.

Chain of recombinant human neonatal Fc receptor (rhFcRn, R&D systems) (human) (P55899 24-297 limits assumed, chain 1 of 2): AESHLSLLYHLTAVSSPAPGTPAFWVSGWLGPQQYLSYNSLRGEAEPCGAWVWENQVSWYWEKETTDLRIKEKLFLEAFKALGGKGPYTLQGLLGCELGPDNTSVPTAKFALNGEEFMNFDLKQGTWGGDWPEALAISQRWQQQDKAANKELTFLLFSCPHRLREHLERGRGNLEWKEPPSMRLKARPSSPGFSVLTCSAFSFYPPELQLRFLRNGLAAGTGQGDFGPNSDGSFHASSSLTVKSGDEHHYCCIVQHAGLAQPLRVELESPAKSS
Chain of recombinant human neonatal Fc receptor (rhFcRn, R&D systems) (human) (chain, as listed by the source limits assumed, chain 2 of 2): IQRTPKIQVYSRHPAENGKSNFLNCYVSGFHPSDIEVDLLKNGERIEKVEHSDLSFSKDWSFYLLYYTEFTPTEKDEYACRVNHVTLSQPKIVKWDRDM

As a reminder, the Kd is the free concentration of one partner at which half of the binding sites on the other are occupied at equilibrium, for simple one-to-one binding. Regarding “dulaglutide (trade name Trulicity) (Fc fusion)”, the Kd in assay [1] turned out to be 2090 nM. With Rituximab (antibody), the Kd in assay [2] was determined as 2390 nM.

Source of the values: US20230174617A1.
